Measurements taken from patent US20200087347 (published 2020).
Where no end group is shown, it is not given here. Side-chain parts run from the residue outwards. [ ]: non-standard residue; d: D form. The star is where a group is joined. BODIPY(FL) = CC1=CC(C)=[N+]2C1=Cc1ccc(CCC(=O)*)n1[B-]2(F)F; NMeK = CN[C@@H](CCCCN)C(=O)O

Legend:
Assay in all cases: competition
integrin αvβ5 = target: T1, integrin αvβ5 (human, UniProt P06756)
T1 chain 1: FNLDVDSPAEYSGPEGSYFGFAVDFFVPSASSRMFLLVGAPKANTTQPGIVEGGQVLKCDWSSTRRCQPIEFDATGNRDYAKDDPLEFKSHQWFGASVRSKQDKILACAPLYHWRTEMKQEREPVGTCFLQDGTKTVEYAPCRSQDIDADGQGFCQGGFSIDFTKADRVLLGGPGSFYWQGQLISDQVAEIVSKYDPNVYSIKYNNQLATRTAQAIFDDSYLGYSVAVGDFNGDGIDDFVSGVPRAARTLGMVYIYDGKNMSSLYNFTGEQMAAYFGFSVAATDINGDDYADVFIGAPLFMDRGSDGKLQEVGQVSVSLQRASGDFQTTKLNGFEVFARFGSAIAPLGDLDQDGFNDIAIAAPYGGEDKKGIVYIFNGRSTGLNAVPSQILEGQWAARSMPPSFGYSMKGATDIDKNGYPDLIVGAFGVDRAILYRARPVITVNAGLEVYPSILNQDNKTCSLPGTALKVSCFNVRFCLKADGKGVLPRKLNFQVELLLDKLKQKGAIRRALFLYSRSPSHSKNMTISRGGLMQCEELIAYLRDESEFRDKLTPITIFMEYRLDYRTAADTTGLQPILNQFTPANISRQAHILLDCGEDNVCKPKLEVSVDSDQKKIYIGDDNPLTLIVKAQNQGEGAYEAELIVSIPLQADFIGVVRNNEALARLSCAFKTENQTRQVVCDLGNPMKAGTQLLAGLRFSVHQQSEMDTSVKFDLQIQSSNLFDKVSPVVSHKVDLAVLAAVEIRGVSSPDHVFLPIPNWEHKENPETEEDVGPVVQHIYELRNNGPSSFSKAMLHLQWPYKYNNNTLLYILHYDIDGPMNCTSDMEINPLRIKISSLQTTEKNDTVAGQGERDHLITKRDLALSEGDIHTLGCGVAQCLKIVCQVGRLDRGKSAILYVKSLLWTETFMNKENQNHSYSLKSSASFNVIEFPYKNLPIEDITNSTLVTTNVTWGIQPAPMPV
T1 chain 2: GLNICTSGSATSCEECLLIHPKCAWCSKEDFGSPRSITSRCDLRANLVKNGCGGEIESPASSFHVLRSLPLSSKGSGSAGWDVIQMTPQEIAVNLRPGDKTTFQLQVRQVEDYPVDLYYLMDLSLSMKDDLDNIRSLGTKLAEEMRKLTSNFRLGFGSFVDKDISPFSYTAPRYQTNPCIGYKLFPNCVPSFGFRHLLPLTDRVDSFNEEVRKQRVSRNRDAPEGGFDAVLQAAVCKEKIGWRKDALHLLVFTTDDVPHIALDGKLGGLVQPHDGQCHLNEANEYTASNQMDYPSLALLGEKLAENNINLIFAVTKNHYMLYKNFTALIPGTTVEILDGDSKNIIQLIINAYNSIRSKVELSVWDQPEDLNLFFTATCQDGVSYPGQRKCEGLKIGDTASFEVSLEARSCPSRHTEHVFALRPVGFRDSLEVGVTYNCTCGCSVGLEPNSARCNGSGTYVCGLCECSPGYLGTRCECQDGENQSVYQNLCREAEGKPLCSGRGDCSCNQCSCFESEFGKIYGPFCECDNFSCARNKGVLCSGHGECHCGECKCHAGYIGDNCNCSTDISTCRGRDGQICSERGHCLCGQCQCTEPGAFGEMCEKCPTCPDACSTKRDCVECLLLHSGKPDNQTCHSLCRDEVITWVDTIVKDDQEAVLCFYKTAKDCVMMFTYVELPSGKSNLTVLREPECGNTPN

integrin αvβ6 = target: T2, integrin αvβ6 (human, UniProt P06756)
T2 chain 1: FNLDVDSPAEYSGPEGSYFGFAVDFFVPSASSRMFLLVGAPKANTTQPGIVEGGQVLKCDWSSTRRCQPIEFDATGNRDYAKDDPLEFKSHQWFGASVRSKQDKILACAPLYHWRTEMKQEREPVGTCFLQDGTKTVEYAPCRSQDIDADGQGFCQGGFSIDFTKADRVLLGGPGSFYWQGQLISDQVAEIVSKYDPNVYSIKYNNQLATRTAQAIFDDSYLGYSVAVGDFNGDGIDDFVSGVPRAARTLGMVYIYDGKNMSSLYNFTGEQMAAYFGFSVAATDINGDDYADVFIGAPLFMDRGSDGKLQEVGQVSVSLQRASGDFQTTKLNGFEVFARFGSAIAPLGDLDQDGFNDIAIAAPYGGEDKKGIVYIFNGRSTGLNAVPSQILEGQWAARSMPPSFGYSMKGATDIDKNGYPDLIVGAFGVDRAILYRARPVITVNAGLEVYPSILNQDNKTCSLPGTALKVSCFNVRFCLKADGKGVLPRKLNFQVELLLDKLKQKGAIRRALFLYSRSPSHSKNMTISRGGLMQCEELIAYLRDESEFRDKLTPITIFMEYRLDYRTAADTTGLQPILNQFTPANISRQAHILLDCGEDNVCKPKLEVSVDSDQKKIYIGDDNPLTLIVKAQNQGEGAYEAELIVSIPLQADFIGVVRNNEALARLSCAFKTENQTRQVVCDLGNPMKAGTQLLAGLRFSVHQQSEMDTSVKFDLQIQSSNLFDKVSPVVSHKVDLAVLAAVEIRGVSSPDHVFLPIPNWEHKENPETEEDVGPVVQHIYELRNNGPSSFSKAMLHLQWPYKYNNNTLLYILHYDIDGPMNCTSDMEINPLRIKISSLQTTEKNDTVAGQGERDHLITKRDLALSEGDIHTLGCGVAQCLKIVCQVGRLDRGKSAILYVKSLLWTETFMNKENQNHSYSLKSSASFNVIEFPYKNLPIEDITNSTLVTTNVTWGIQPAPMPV
T2 chain 2: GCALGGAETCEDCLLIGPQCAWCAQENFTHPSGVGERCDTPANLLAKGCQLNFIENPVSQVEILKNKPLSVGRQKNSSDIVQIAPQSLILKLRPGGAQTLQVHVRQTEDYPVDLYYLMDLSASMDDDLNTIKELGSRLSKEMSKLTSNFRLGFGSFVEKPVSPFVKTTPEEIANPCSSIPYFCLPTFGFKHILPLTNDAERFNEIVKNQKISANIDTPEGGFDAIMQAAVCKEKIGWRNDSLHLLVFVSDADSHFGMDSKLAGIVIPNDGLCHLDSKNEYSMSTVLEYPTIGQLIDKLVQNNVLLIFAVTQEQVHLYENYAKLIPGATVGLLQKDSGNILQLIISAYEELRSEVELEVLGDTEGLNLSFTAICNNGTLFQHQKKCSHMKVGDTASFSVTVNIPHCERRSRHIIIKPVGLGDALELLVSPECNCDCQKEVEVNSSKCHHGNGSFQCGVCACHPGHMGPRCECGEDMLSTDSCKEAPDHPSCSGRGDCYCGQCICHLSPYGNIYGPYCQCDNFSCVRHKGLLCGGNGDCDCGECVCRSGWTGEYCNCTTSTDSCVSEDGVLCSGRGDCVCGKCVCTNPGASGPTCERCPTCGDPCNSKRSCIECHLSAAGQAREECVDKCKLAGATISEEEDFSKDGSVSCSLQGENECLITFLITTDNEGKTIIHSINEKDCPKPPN

integrin αvβ8 = target: T3, integrin αvβ8 (human, UniProt P06756)
T3 chain 1: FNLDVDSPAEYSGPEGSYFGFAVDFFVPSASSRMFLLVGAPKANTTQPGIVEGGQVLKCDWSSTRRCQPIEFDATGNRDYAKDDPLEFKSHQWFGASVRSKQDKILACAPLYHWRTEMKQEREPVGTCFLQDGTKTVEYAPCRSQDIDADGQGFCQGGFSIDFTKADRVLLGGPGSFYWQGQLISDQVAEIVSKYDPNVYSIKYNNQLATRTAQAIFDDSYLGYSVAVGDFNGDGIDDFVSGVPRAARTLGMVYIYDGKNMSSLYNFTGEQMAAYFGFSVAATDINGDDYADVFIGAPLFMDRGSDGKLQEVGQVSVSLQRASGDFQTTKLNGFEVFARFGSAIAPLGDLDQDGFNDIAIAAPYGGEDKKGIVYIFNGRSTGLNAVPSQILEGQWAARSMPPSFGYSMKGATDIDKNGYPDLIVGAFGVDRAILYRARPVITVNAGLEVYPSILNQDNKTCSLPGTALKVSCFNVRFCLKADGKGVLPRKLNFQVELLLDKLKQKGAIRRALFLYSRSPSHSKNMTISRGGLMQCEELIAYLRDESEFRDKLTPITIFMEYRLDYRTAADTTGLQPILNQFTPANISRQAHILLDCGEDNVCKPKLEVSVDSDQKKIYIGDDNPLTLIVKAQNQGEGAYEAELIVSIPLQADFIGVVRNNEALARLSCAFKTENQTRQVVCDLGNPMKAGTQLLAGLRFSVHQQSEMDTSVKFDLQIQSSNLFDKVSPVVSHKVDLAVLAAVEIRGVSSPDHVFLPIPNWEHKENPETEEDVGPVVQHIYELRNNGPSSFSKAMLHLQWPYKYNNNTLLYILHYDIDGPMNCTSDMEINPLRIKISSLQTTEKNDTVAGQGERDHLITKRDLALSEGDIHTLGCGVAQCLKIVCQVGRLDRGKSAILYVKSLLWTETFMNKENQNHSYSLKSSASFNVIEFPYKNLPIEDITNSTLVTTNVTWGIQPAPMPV
T3 chain 2: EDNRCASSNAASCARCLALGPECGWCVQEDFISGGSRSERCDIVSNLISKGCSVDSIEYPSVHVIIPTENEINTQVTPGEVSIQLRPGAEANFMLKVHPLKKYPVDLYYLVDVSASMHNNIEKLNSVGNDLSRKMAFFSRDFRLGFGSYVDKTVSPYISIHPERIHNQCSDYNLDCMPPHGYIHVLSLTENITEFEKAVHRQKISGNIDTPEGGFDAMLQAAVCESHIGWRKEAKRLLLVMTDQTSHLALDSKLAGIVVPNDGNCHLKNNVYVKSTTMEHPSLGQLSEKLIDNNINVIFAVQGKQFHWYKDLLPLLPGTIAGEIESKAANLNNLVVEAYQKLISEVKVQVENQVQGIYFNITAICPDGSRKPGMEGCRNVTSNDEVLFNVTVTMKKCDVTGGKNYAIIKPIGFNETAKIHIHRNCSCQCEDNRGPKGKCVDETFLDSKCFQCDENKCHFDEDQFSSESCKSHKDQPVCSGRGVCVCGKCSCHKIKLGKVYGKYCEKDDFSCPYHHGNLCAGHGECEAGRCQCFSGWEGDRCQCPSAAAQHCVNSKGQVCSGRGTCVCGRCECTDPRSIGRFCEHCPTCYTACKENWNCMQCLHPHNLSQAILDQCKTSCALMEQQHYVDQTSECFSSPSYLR

integrin αvβ3 = target: T4, integrin αvβ3 (human, UniProt P06756)
T4 chain 1: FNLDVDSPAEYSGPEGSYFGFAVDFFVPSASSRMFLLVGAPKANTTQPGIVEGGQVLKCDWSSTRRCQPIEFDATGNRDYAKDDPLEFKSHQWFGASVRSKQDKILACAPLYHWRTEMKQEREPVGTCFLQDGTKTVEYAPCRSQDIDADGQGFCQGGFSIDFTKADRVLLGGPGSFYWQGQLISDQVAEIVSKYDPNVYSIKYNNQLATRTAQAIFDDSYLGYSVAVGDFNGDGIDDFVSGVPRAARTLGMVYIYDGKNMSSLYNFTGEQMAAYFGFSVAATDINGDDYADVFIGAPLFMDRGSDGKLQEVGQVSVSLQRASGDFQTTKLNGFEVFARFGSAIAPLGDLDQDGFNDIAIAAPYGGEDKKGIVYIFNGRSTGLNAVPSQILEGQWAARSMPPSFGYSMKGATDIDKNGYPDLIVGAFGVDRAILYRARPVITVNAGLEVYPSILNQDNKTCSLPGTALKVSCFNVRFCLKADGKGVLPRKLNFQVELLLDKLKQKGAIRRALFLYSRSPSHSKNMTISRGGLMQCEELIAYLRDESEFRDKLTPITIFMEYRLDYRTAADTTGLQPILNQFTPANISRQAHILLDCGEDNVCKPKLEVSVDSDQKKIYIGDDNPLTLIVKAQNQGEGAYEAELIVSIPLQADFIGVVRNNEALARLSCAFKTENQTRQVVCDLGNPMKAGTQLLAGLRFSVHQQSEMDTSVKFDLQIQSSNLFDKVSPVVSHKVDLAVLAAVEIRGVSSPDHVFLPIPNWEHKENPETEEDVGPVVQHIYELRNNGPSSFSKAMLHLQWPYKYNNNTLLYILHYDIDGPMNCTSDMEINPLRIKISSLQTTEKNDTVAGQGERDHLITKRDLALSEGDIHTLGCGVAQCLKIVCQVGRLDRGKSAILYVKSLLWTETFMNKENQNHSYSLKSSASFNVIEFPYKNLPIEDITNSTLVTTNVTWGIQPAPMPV
T4 chain 2: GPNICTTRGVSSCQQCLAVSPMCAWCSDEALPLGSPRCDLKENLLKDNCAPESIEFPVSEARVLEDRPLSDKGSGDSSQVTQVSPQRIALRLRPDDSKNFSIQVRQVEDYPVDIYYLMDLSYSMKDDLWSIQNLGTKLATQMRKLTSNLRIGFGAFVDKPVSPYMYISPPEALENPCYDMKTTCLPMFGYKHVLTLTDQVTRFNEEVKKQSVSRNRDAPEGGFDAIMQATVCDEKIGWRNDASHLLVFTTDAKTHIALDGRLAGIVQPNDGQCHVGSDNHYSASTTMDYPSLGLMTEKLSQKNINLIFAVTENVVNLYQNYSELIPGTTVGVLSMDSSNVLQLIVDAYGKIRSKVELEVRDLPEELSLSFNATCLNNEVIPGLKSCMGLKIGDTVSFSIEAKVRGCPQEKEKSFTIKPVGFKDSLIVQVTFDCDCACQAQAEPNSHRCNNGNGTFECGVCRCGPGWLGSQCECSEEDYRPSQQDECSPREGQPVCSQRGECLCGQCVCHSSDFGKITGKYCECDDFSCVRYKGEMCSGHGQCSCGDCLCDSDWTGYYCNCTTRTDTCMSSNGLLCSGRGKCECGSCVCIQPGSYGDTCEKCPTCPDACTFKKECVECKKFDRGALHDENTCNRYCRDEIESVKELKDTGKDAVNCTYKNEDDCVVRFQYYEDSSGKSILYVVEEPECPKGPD

integrin α5β1 = integrin α5β1 (human, UniProt P08648)
Chain of integrin α5β1 (P08648 42-1049, chain 1 of 2): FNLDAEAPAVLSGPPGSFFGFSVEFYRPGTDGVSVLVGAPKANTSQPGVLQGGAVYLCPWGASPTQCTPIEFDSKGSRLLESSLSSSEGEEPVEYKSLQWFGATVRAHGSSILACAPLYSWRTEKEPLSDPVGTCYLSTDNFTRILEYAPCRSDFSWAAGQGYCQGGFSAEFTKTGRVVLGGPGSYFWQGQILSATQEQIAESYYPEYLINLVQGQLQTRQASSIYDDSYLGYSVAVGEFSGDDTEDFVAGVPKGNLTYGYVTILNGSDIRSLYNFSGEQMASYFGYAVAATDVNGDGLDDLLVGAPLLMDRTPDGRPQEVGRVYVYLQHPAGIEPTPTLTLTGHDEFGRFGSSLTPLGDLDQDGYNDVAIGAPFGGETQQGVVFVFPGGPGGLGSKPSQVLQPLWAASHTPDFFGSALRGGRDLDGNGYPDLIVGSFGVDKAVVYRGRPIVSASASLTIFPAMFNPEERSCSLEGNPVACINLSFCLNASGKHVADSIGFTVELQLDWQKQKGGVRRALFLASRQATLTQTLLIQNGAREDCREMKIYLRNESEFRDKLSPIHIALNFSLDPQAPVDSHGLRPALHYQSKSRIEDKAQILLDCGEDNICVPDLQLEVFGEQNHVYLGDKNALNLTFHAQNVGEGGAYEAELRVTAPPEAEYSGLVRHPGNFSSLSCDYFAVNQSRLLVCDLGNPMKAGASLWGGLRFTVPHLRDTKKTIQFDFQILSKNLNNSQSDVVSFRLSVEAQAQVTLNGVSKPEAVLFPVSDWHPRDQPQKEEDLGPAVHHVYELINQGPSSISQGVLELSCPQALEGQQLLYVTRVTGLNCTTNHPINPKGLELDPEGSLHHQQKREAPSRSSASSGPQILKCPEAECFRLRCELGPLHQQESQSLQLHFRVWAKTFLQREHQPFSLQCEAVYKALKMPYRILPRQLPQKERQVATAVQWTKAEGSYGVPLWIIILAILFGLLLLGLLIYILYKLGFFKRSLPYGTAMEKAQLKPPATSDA
Chain of integrin α5β1 (chain, as listed by the source, chain 2 of 2): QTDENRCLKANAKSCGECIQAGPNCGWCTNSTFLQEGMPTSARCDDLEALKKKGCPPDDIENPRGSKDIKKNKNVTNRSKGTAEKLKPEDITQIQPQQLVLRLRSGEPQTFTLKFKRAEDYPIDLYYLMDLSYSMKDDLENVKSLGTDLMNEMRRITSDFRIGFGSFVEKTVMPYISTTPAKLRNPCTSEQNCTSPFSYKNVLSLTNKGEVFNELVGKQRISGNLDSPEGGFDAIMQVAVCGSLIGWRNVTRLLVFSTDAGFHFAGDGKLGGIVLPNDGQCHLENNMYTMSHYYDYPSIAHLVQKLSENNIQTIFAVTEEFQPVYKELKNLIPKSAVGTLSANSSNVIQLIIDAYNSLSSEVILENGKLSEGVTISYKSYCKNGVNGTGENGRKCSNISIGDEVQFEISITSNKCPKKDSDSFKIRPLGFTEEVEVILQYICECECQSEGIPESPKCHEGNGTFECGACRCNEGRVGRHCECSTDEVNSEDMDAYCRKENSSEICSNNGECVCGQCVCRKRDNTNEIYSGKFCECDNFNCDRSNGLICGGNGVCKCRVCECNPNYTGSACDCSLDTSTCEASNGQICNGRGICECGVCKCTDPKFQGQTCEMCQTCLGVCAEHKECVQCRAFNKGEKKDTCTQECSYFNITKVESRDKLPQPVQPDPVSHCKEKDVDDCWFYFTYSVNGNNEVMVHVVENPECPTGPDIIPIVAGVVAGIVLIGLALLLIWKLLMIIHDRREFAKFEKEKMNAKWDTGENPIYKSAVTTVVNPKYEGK

B1: Compound 9e (9-G(P)3G-BDPFL) (peptide)
chain: RGDL[dP][NMeK]([Gly-Pro-Pro-Pro-Gly-BODIPY(FL)])GL
modifications: not fully specified (bridges); also: cyclic, closure not given here
Q: For B1, which IC50 (integrin αvβ5) is on record?
A: Its IC50 is over 10000 nM.

Q: What about the IC50 (integrin αvβ6) of the same binder?
A: The IC50 was 247 nM.

Q: And the IC50 (integrin αvβ8)?
A: Its IC50 is 2.07 nM.

Q: What about the IC50 (integrin αvβ3) of the same binder?
A: Its IC50 is 585 nM.

Q: What about the IC50 (integrin α5β1) of the same binder?
A: Its IC50 is 979 nM.
